# B1: FAM189A2 (parent)
# chain: CALNALTTTVCLVAAALRYLQIFA
# B2: RHOBTB3 (parent)
# chain: STTEGIQLAKELGATYLELHSLDD
# Variants of: B1
# Assay: protein stability index of a GFP-peptide fusion (GPS, HEK-293T) (PSI 1-6); higher = more stable
# Details: c terminus: a fixed tail appended
# 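Note: lentivirally expressed fusions sorted by FACS into six bins by GFP to DsRed ratio, PSI derived from sequencing read proportions per bin multiplied by bin number.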
row,Variant,protein stability index
1,CALNALTTTVCLVAAALLYLQIFA [R18L],2.98
2,CALNALTTTVCLVAAALGYLQIFA [R18G],3.25
3,CALNALTTTVALVAAALRYLQIFA [C11A],3.95
4,CALNALTTTVILVAAALRYLQIFA [C11I],4.44
5,CALNALTKTVCLVAAALRYLQIFA [T8K],1.93
6,CALNALTGTVCLVAAALRYLQIFA [T8G],1.91
7,CALNALTTTVCLVAAALRYLIIFA [Q21I],2.65
8,CALNALTTTVCLVAAALRYLLIFA [Q21L],3.19
9,CARNALTTTVCLVAAALRYLQIFA [L3R],2.9
10,CATNALTTTVCLVAAALRYLQIFA [L3T],2.98
11,CAHNALTTTVCLVAAALRYLQIFA [L3H],2.11
12,CALNPLTTTVCLVAAALRYLQIFA [A5P],2.7
13,CALNALTTTVCLVASALRYLQIFA [A15S],3.48
14,CALNALTTTVCLVAVALRYLQIFA [A15V],3.64
15,CALNALTTTVCLVAAALRYRQIFA [L20R],3.02
16,CALNALTTTVCPVAAALRYLQIFA [L12P],3.76
17,YALNALTTTVCLVAAALRYLQIFA [C1Y],2.99
18,CALNACTTTVCLVAAALRYLQIFA [L6C],2.11
19,CALNALTTTVCLVAAALRYLQLFA [I22L],2.83

# Variants of: B2
# Assay: as above
# Details: c terminus: a fixed tail appended
row,Variant,protein stability index
1,STTEGIQLAKELGATYLELHSTDD [L22T],4.15
2,STTEGIQLAKELGATYLELHSVDD [L22V],4.3
3,STTEGIQLAKELGATYLELHSNDD [L22N],4.68
4,STTEGIQLAKELGATYLELHSPDD [L22P],4.54
5,STTEGIQLAKELGATYLELHSCDD [L22C],4.01
6,STTEGIQLAKELGATYLELHSQDD [L22Q],4.91
7,STTEGIQLAKELGATYLELHSRDD [L22R],5.07
8,STTEGIQLAKELGATNLELHSLDD [Y16N],5.25
9,STTEGIQLAKELGATVLELHSLDD [Y16V],3.59
10,STTEGIQLAKELGATWLELHSLDD [Y16W],2.49
11,STTEGIQLAKELGATHLELHSLDD [Y16H],4.25
12,STTEGIQLAKELGATTLELHSLDD [Y16T],4.28
13,STTEGIQLAKEVGATYLELHSLDD [L12V],4.43
14,STTEGIQLAKEQGATYLELHSLDD [L12Q],4.31
15,STTEGIQLAKEGGATYLELHSLDD [L12G],4.89
16,STTEGIQLAKEMGATYLELHSLDD [L12M],4.48
17,STTEGIQLAKELGATYLELHSLDV [D24V],1.57
18,STTEGIQLAKELGATYLELHSLDQ [D24Q],1.96
19,STTEGIQLAKELGATYLELHSLDT [D24T],2.05
20,STTEGIQLAKELGATYLELHSLDW [D24W],2.09
21,STTEGIQLAKELGATYLELHSLDM [D24M],1.38
22,STTEGIQLAKELGATYLELHSLDA [D24A],2.17
23,STTEGIQLAKELGATYLELHSLDI [D24I],2.7
24,STTEGIQCAKELGATYLELHSLDD [L8C],3.94
25,STTEGIQIAKELGATYLELHSLDD [L8I],4.41

row,Variant,protein stability index
1,STTEGIQRAKELGATYLELHSLDD [L8R],4.41
2,STTEGIQAAKELGATYLELHSLDD [L8A],4.29
3,STTEGIQVAKELGATYLELHSLDD [L8V],4.44
4,STTEGIQEAKELGATYLELHSLDD [L8E],4.97
5,STTEGIQWAKELGATYLELHSLDD [L8W],3.86
6,STTEGIQLCKELGATYLELHSLDD [A9C],3.08
7,STTEGIQLHKELGATYLELHSLDD [A9H],4.38
8,STTEGIQLRKELGATYLELHSLDD [A9R],3.01
9,STTEGIQLSKELGATYLELHSLDD [A9S],4.24
10,STTEGIQLNKELGATYLELHSLDD [A9N],4.06
11,STTEGIQLYKELGATYLELHSLDD [A9Y],3.12
12,STTEGIQLVKELGATYLELHSLDD [A9V],2.53
13,STTEGIQLLKELGATYLELHSLDD [A9L],1.19
14,STTEGIQLQKELGATYLELHSLDD [A9Q],3.52
15,STTEGIQLIKELGATYLELHSLDD [A9I],2.63
16,STTEGIQLKKELGATYLELHSLDD [A9K],3.6
17,STTEGIQLAKELGATYLEKHSLDD [L19K],5.37
18,STTEGIQLAKELGATYLERHSLDD [L19R],4.43
19,STTEGIQLAKELGATYLEDHSLDD [L19D],5.77
20,STTEGIQLAKELGATYLENHSLDD [L19N],5
21,STTEGIQLAKELGATYLEHHSLDD [L19H],5.02
22,STTEGIQLAKELGATYLEVHSLDD [L19V],4.68
23,STTEGIQLAKELGATYLEFHSLDD [L19F],4.21
24,STTEGINLAKELGATYLELHSLDD [Q7N],3.24
25,STTEGIGLAKELGATYLELHSLDD [Q7G],3.36

row,Variant,protein stability index
1,STTEGIELAKELGATYLELHSLDD [Q7E],3.71
2,STTEGIMLAKELGATYLELHSLDD [Q7M],2.86
3,STTEGIYLAKELGATYLELHSLDD [Q7Y],3.52
4,STTEGIHLAKELGATYLELHSLDD [Q7H],3.99
5,STTEGIALAKELGATYLELHSLDD [Q7A],3.7
6,STTSGIQLAKELGATYLELHSLDD [E4S],3.79
7,STTQGIQLAKELGATYLELHSLDD [E4Q],2.71
8,STTRGIQLAKELGATYLELHSLDD [E4R],3.42
9,STTCGIQLAKELGATYLELHSLDD [E4C],1.66
10,STTVGIQLAKELGATYLELHSLDD [E4V],3.1
11,STTLGIQLAKELGATYLELHSLDD [E4L],1.83
12,STTTGIQLAKELGATYLELHSLDD [E4T],3.67
13,STTEGIQLAKELGATYLELHALDD [S21A],2.93
14,STTEGIQLAKELGATYLELHWLDD [S21W],1.03
15,STTEGIQLAKELGATYLELHYLDD [S21Y],1.59
16,STTEGIQLAKELGATYLELHQLDD [S21Q],3.39
17,STTEGIQLAKELGATYLELHHLDD [S21H],3.38
18,STTEGIQLAKELGATYLELHTLDD [S21T],3.79
19,STTEGIQLAKELIATYLELHSLDD [G13I],2.79
20,STTEGIQLAKELHATYLELHSLDD [G13H],2.09
21,STTEGIQLAKELTATYLELHSLDD [G13T],2.72
22,STTEGIQLAKELLATYLELHSLDD [G13L],1.28
23,STTEGIQLAKELCATYLELHSLDD [G13C],2.88
24,STTEGIQLAKELWATYLELHSLDD [G13W],1.39
25,STTEGIQLAKELFATYLELHSLDD [G13F],2.36

# Source: the supplement of paper PMC10567573
